B1: Histone-lysine N-methyltransferase 2A, residues 1148 to 1194; numbered along this chain, Q03164 (parent)
chain: KGRRSRRCGQCPGCQVPEDCGVCTNCLDKPKFGGRNIKKQCCKMRKC
B2: RNA-binding E3 ubiquitin-protein ligase MEX3C, residues 325 to 391; numbered along this chain, Q5U5Q3 (parent)
chain: GQTTVQVRVPYRVVGLVVGPKGATIKRIQQQTHTYIVTPSRDKEPVFEVTGMPENVDRAREEIEMHI

Variants of: B1
Test: abundance fitness (aPCA) (normalised: wild type 0, dead -1); higher = more abundant; growth selection in yeast, the domain comes from the species named
Settings: Homo sapiens

Abundance fitness of substitutions, site by site:
R45: A -0.659; P -0.67; T -0.597; D -0.411; E -0.682; S -0.349; K -0.529; L -0.527; Y -0.735; I -0.439; G -0.429; M -0.308; Q -0.52; V -0.492; W -0.662; H -0.737
K43: M -0.031; S -0.112; Y 0.046; T 0.09; F -0.224; W -0.12; E 0.179; D 0.018; R -0.27; V 0.108; L 0.07; A -0.015; P -0.85; Q -0.215; I 0.121; H 0.37; G -0.312
M44: E 0.003; Q 0.037; R -0.023; S -0.335; W -0.151; G -0.251; K -0.037; P -0.659; V -0.213; H -0.181; D -0.242; C -0.484; T -0.283; Y -0.205; A -0.012; I -0.021; N -0.253
C42: R -0.569; W -0.821; F -0.647; V -0.813; E -0.604; N -1; Y -0.792; L -0.651; A -0.952; H -0.809; D -0.849; I -1; P -0.709; T -0.824; M -1.01; Q -0.955; G -0.909
K46: V 0.039; D 0.231; E 0.105; I 0.356; P -0.341; S -0.12; H -0.02; W -0.31; G -0.145; A 0.206; N -0.728; Q 0.153; C -0.17; R -0.205; M 0.074; F -0.21; Y -0.128
K39: V 0.063; P -0.06; S 0.007; R -0.185; Y -0.683; Q 0.042; T -0.187; W -0.416
C47: A -0.695; R -0.925; P -0.789; T -0.884; S -0.619; F -0.52; Y -0.967; D -0.347; W -0.527
C41: P 0.028; V 0.094; W -0.095; I 0.048; Q 0.119; D 0.3; H 0.098; Y -0.322; K -0.123; F -0.095; M 0.127; T -0.195; L -0.241; G 0.04; S -0.066; N 0.27; A -0.104; R -0.014
Q40: Y -0.493; P -0.512; A -0.317; H -0.312; I -0.772; C -0.284; N -0.461; E 0.312; S -0.103; D -0.03; R -0.229; G 0.034; W -0.545; F -0.089; L -0.177; M -0.138; V -0.042; K -0.249; T -0.234

Variants of: B2
Test: as above
Settings: Homo sapiens

Abundance fitness: each site, then its substitutions
V7: A -0.731; I 0.092; K -0.47; P -0.567; E -0.39; N -0.987; R -0.851; L -0.537; F -0.124; T -0.802; H -0.603; D -0.571; G -0.809; W -0.92; C -0.769; Q -0.603; Y -0.717; S -0.516
R12: D 0.159; A 0.001; H -0.189; N 0.141; F -0.11; T -0.201; S 0.175; Y -0.064; M -0.401; G 0.143; Q 0.013; P 0.054; I -0.373; L -0.588; V -0.652; E 0.136; K 0.063
Q6: Y 0.269; G -0.16; S -0.056; W -0.513; V 0.071; T -0.247; H -0.099; P -0.3; M -0.151; A -0.1; D -0.657; E -0.218; L -0.022; R 0.159; C -0.028
R8: K 0.038; C -0.675; L -0.601; I -0.375; V -0.66; P -0.18; Y -0.175; G -0.763; W -0.382; A -0.608; Q -0.683; E -0.52; D -0.666; M -0.555; N -0.971; H -0.345; F -0.666; S -0.377; T -0.209
V5: A -0.34; C -0.475; I 0.2; M -0.452; F -0.363; W -0.83; D -1.05; T -0.478; Q -0.294; K -0.18; L -0.016; R -0.336; E -0.667; H -0.822; S -0.74; G -0.387
T3: W -1.1; Y -0.296; G -0.519; S -0.309; Q -0.258; V 0.008; N -0.672; P -0.787; C -0.256; L -0.163; A -0.799; D -0.45; E -0.385; I 0.306; H -0.252; M -0.556
Q2: S -0.356; P -0.181; R -0.208; I -0.174; C -0.148; F 0.057; G -0.403; D -0.155; W -0.302; N -0.061; L 0.017; A -0.409; Y -0.047; M -0.001; E -0.022; K 0.145; V -0.069; H 0.017
Y11: A 0.171; N -0.014; P 0.128; W 0.136; E 0.402; F -0.514; M 0.154; R 0.262; K 0.369; G -0.013; H 0.17; S 0.236; Q 0.233; L -0.029
T4: S -0.757; C -0.718; V -0.477; G -0.646; K -0.414; L -0.756; H -0.38; E -1.06; I -0.622; D -0.631; N -0.812; A -0.523; M -0.751; F -0.881; R -0.425; W -0.832
P10: T -0.611; H -0.825; W -0.841; V -0.707; S -0.793; C -0.655; A -0.708; I -0.634; M -0.885; L -0.693; D -0.372; F -1.1; K -0.563; Q -0.754; G -0.767
G1: S -0.094; A -0.27; R -0.022; V -0.283; D -0.136
V9: W -0.767; I -0.54; Q -0.993; R -0.609; M -0.641; H -0.928; K -0.776; T -0.84; F -0.933; N -0.954; D -0.834; G -0.551; E -0.733; L -0.873; P -0.825; A -0.657
V13: E -0.334; F 0.022; L 0.114; I -0.366; A -0.029; D 0.057; K 0.216; G -0.153; H -0.041; M 0.075; C -0.024

— the Human Domainome abundance scans (Beltran et al. 2025)
